The source of these data is US20190092827A1 (University of Texas, published 2019).

The term Kd denotes the free concentration of one partner at which half of the binding sites on the other are occupied at equilibrium, for simple one-to-one binding.

The data set concerns the molecule itself. Put plainly: solution NMR spectroscopy, monomer-dimer equilibrium (homodimerisation).

B1: WT MIP-2 (chemokine CXCL2, also known as MIP-2 in mice) (ligand, mouse, UniProt P10889 28-100, looked up)
chain: AVVASELRCQCLKTLPRVDFKNIQSLSVTPPGPHCAQTEVIATLKGGQKVCLDPEAPLVQKIIQKILNKGKAN
notes: also called native MIP-2; wild-type (WT) chemokine
In the case of B1, the Kd came out at 10 µM.
